The source of these data is patent US11780901B2, “Analogues of parathyroid hormone (1-34) that function as agonists of the parathyroid hormone receptor-1 and display modified activity profiles” (Wisconsin Alumni Research Foundation, priority 2013, dated 2023).

One assay deals with T1, rat PTHR-1 (GR35 cells) (Rattus norvegicus, UniProt P25961).
T1 construct: expressed in transfected cells
T1 sequence (P25961 27-591): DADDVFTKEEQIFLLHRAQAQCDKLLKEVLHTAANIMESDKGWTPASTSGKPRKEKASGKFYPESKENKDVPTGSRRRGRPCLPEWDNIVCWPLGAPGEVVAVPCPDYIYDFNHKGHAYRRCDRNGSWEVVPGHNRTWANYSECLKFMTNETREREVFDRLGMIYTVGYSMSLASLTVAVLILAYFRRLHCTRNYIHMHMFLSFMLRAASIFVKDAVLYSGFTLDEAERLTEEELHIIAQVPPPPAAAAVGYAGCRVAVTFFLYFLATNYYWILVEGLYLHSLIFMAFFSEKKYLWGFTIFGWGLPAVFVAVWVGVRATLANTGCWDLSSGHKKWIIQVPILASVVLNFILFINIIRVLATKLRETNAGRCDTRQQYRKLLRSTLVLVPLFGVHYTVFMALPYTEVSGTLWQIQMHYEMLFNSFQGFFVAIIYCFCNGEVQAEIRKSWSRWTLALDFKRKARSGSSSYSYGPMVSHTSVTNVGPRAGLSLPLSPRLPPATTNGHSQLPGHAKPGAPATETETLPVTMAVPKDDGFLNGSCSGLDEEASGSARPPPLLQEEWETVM
The assay can be described thus: Washout assay of Gs-biased PTHR1 agonists (cAMP response after washout). The assay is classed as cell-based. The conditions noted are these: compared with PTH (1-34). As for the experimental part:
These “washout assays”^7,8,21 assess the ability of the peptides to form stable ligand-receptor complexes capable of stimulating prolonged cAMP responses. The ability of a peptide to elicit prolonged cAMP responses via PTHR-1 following washout typically correlates with the affinity of that peptide for the R^0 state.^7,8,21
HEK293 cell monolayers expressing rat PTHR-1 (GR35 cells) were treated with ligand in for 14 minutes. This buffer was then discarded, and the cell monolayer was rinsed (2×). Buffer containing luciferin was introduced for 120 minutes. Luminescence response was recorded before and after washout, with luminescence readings recorded every 2 minutes. The area under the curve (AUC) for luminescence response curve was determined using GraphPad Prism.
Data were processed by using the Microsoft Excel and GraphPad Prism 4.0 software packages. Data from binding and cAMP dose—response assays were analyzed using a sigmoidal dose—response model with variable slope. Washout responses were assessed by quantifying the area under the luminescence response curve (AUC) following washout. Post-washout AUC was normalized by dividing the post-washout AUC by the pre-washout AUC. Paired data sets were statistically compared by using Student's t test (two-tailed) assuming unequal variances for the two sets.

For assay [1], the target named is T2, PTHR1 (Homo sapiens, UniProt Q03431).
T2 sequence (Q03431 27-593): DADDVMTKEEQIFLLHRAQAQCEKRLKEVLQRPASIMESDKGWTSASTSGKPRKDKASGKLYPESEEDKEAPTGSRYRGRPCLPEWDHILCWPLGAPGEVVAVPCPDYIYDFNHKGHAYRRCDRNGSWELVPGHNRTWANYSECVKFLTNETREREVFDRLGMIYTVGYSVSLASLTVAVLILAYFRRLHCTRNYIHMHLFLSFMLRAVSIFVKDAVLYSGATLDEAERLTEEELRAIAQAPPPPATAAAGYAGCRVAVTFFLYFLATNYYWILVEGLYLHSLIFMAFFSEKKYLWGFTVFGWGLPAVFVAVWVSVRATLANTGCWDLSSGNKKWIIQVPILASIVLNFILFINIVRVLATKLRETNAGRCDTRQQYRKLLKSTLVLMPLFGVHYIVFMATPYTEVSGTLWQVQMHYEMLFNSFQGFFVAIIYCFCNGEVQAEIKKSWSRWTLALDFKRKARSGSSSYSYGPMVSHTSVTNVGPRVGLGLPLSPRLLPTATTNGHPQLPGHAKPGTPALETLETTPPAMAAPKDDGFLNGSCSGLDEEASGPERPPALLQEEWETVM
The assay can be described thus: Functional selectivity (Gs activation/cAMP production vs βarr recruitment). The assay is classed as cell-based. Further details: expressed in transfected cells; host or cells: cells stably expressing PTHR1. The conditions noted are these: cAMP activation vs βarr1 and βarr2 recruitment, relative to PTH (1-34). As to the method:
More specifically, the initial studies that yielded the compounds disclosed and claimed herein were conducted to determine whether there is a correlation between βarr recruitment and receptor residence time of a PTHR1 agonist. The initial studies were thus conducted in two steps. First, the functional selectivity (Gs activation as indicated by cAMP production vs. βarr recruitment) of several PTHR1 agonists that display substantial differences in signaling duration were evaluated. Second, novel PTHR1 agonists were designed that have high functional selectivity and evaluated the signaling duration of these biased agonists.
(§1) The functional selectivity of BA058 is more significant than that of PTHrP. […] LA-PTH is a long-acting PTH analog. […] The middle panels in FIG. 2 are graphs depicting, from left-to-right: βarr1 and βarr2 recruitment, presented as normalized BRET signals (bioluminescence resonance energy transfer) as a function of the log of the peptide concentration, and cAmp activation presented as normalized RLU signals (relative light units) as a function of the log of the peptide concentration. Red=PTH. Orange=LA=LA−PTH. Blue=BA058. Green=PTHrP. (BRET assays are well known and suitable kits are available commercially. See, for example, Promega's “NanoBRET” kits, catalogs nos. N1821 and N1811; Promega Corporation, Fitchburg, Wis.). The table at the bottom of FIG. 2 presents the pEC50 and Emax values for the […] and βarr2 recruitment and cAMP activation. FIG. 3 presents the data for the bias of the activity—either toward βarr recruitment or cAMP activation.
Incorporating (R*)-β^2Leu/(D)-Leu at the 7th position or (R*)-β^2Nle at the 8th position leads to high Gs-biased agonism. […] (D)-Nle is poorly tolerated at the 8th position for both cAMP signaling and βarr recruitment. The top panels in FIG. 5 are graphs depicting, from left-to-right: βarr1 and βarr2 recruitment, presented as normalized BRET signals as a function of the log of the peptide concentration, and cAmp activation presented as normalized RLU signals as a function of the log of the peptide concentration. […]

The next assay concerns the target T3, R^0 state of PTHR1 (Homo sapiens, UniProt Q03431).
T3 construct: expressed in transfected cells; host or cells: COS-7, transient; membranes
T3 sequence (Q03431 27-593): T2 sequence (Q03431 27-593)
Conditions: relative to PTH (1-34); cited from earlier work.

For assay [2], the target named is T4, PTHR2 (Homo sapiens, UniProt P49190). Further details: expressed in transfected cells. Conditions: previous studies; cited from earlier work.
T4 sequence (P49190 25-550): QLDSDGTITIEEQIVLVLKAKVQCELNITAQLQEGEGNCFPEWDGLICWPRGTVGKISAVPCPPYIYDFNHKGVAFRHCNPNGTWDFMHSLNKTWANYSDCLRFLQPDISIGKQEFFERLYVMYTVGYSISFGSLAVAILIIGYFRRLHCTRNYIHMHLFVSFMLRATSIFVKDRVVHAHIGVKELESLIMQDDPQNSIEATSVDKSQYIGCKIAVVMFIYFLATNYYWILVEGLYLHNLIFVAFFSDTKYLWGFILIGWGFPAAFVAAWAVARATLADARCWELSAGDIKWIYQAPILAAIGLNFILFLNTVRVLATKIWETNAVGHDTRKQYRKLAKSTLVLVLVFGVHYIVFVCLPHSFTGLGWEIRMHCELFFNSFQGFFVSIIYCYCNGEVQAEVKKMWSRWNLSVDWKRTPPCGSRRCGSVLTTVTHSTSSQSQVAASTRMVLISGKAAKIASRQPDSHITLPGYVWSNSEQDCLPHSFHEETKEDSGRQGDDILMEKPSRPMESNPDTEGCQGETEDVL
For assay [3], the target named is T2, PTHR1. The assay can be described thus: βarr recruitment (BRET). Details: expressed in transfected cells; host or cells: cells stably expressing PTHR1. The conditions noted are these: compared with PTH and LA-PTH. The assay is classed as cell-based.
From the text: as §1
A general note: Bioluminescence resonance energy transfer reports proximity on the nanometre scale.

Assay [4] deals with T4, PTHR2. The assay can be described thus: Antagonism of PTHR2 activation by PTH(1-34)-NH2. Format: cell-based. Details: expressed in transfected cells; host or cells: cells stably expressing PTHR2. Conditions: FIG. 11. The text has this: Data points represent mean±s.e.m from four independent experiments. Curves were fit to the data using a four-parameter sigmoidal dose-response equation.
See Hoare, S. R. J., Clark, J. A. & Usdin, T. B. Molecular determinants of tuberoinfundibular peptide of 39 residues (TIP39) selectivity for the parathyroid hormone-2 (PTH2) receptor—N-terminal truncation of TIP39 reverses PTH2 receptor/PTH1 receptor binding selectivity. Journal of Biological Chemistry 275, 27274-27283 (2000) and Gardella, T. J., Luck, M. D., Jensen, G. S., Usdin, T. B. & Juppner, H. Converting parathyroid hormone-related peptide (PTHrP) into a potent PTH-2 receptor agonist.

Another assay addresses T5, PTHR2 Y318I (Homo sapiens, UniProt P49190, Y318I).
T5 construct: expressed in transfected cells
The assay can be described thus: Activation of PTHR2 variant Y318I. Format: cell-based. Conditions: 100 nM. The text has this:
(§2) Molecular basis of PTHR1 vs. PTHR2 selectivity. Previous receptor-mutation studies have identified sites within PTHR1 and PTHR2 that play critical roles in determining peptide agonist selectivity.

The target in assay [5] is T2, PTHR1. Briefly: Wash-out assay, duration of PTHR1 activation. Format: cell-based. Details: expressed in transfected cells; host or cells: cells stably expressing PTHR1. The conditions noted are these: PTHR1; agonist at ~EC80; PTH(1-34)-NH2 = 100. From the text: Duration of activation for PTHR1 and PTHR2. To assess the duration of PTHR1 and PTHR2 activation induced by α/β-peptides 14 and 15, the time course of cAMP production by each receptor was examined after stimulation with an agonist and subsequent washing of the cells to remove unbound peptide (wash-out assay). […] During the initial “ligand-on” phase, cells stably expressing PTHR1 or PTHR2 were stimulated with an agonist concentration corresponding to ˜EC80; the medium contained D-luciferin. […] After the addition of fresh medium containing D-luciferin, the luminescence decay is measured. The area under the “ligand-off” curve (AUC) reflects the duration of signaling, which may be related to residence time of the agonist on the receptor but could have other origins at the molecular level.

The target in assay [6] is T2, PTHR1. Details: expressed in transfected cells. The conditions noted are these: previous studies; cited from earlier work.
The test system of the next assay is PTHR2 ECL1 chimera. Briefly: Activation of PTHR2 variant, ECL1 chimera. The assay is classed as cell-based. Conditions: 100 nM.
From the text: as §2

For a further assay, the target named is T6, PTHR2 I244L (Homo sapiens, UniProt P49190, I244L).
T6 construct: expressed in transfected cells
T6 sequence (P49190 25-550 I244L): as the sequence (P49190 25-550) above, with I220L counted along it
The assay can be described thus: Activation of PTHR2 variant I244L. Format: cell-based. Conditions: 100 nM.
From the text: as §2

T5 sequence (P49190 25-550 Y318I): as the sequence (P49190 25-550) above, with Y294I counted along it

Regarding “Ligand 12: PTH(1-34) analogue with replaced residue at position 8 (character image); highly Gs-biased (SVSEIQLXHNLGKHLNSMERVEWLRKKLQDVHNF; non-natural residue at position 8; MOD_RES (8)..(8) X at position 8 is (R*)-Beta-2-Norleucine.)”, the “signaling duration after washout (in words)” value with rat PTHR-1 (GR35 cells) was “more transient signaling than PTH (1-34)”. The “signaling bias / functional selectivity (in words)” value in the assay with PTHR1 [1] was “strongly biased toward cAMP activation relative to both βarr1 and βarr2 recruitment”.
For “PTHrP(1-36)-NH2: parathyroid hormone-related protein fragment, naturally PTHR1-selective agonist”, the “R0 affinity (in words)” value with R^0 state of PTHR1 is “moderate”. For the same substance, the “PTHR2 agonist activity (in words)” value with PTHR2 [2] is recorded as “very weak agonist”. Also, in the assay with PTHR1 [3], the “βarr recruitment efficacy maximum (in words)” value is listed as “lower efficacy βarr recruitment maximum”. Further, the “antagonism of PTHR2 activation by PTH(1-34)-NH2 (in words)” value with PTHR2 [4] is given as “antagonistic effect”. Further, the “agonist activity at PTHR2 Y318I relative to wild-type PTHR2 (in words)” value with PTHR2 Y318I was “much more susceptible to activation”. Moreover, the “signaling bias / functional selectivity (in words)” value in the assay with PTHR1 [1] was “biased toward cAMP activation relative to both βarr1 and βarr2 recruitment”. For the same substance, in the assay with PTHR1 [5], the “Normalized ligand-on Emax” value came to 102 ± 1. Further, the “PTHR1 agonist activity (in words)” value with PTHR1 [6] is reported as “potent agonist”. Further, the “agonist activity at PTHR2 ECL1 chimera relative to wild-type PTHR2 (in words)” value with PTHR2 ECL1 chimera is given as “much more susceptible to activation”. The “agonist activity at PTHR2 I244L relative to wild-type PTHR2 (in words)” value in the assay with PTHR2 I244L was “much more susceptible to activation”.
